# Laboratory results reported in publication PMC12207366, “Protonated Glutamate and Aspartate Side Chains Can Recognize Phosphodiester Groups via Strong and Short Hydrogen Bonds in Biomacromolecular Complexes” (Angewandte Chemie (International Ed. in English), 2025).
# Experiments:
# [1] = unstructured peptides; cited from earlier work
# [2] = molecular target: Glu190 (UniProt position 190, EALVEEEKTGD); assay: ITC; details: 20 °C, 200 mM NaCl, 50 mM Tris (pH 8.5-7.5), 50 mM BisTris (pH 7.0-6.0) or 50 mM Na-acetate (pH 5.5-4.0), each with 1 mM beta-mercaptoethanol
# [3] = molecular target: Glu218 (UniProt position 218, RALAEEKGLEF); assay: ITC; details: 20 °C, 200 mM NaCl, 50 mM Tris (pH 8.5-7.5), 50 mM BisTris (pH 7.0-6.0) or 50 mM Na-acetate (pH 5.5-4.0), each with 1 mM beta-mercaptoethanol
# [4] = c-di-GMP-bound protein (pKab of the thermodynamic cycle)
# [5] = ligand-free protein (pKaf of the thermodynamic cycle)
compound,measurement,setting,value
N[C@@H](CCC(=O)O)C(=O)O [glutamate],pKa of side chain carboxylate group,[1],~4.4
PilF GSPII-B domain (PilF159-302) Q190E (Thermus thermophilus; Q190E),pKa,[2]; [4],7.5
same,pKa,[2]; [5],6.3
PilF GSPII-B domain (PilF159-302) Q218E (Thermus thermophilus; Q218E),pKa,[3]; [4],7.1
same,pKa,[3]; [5],5.9
